This is an account of results in US7208293.

For assay [1], the target named is T1, BPTI(K15L,MGNG)-III MA phage (bovine; phage M13).
T1 construct: also called BPTI3.CL; BPTI-IIIMK (K15L MGNG)
In words: phage eluted from HNE beads.

Assay [2] concerns the target T2, BPTI(K15L)-III MA phage (bovine; phage M13).
T2 construct: Whole M13 phage (ampicillin resistance) displaying the variant on gene III protein; also called BPTI(K15L)-III phage
In words: pH elution from HNE beads. As to the method: Samples were mixed on a Labquake shaker for 3 hours. The beads were washed with 0.5 ml of TBS/BSA for 5 minutes and recovered by centrifugation. The supernatant was removed and the beads were washed 5 times with 0.5 ml of TBS/0.1% Tween-20. Finally, the beads were resuspended in 0.5 ml of elution buffer (0.1 M HCl containing 1.0 mg/ml BSA adjusted to pH 2.2 with glycine), mixed for 5 minutes and recovered by centrifugation. The supernatant fraction was removed, neutralized with 130 µl of 1 M Tris, pH 8.0, diluted in LB broth, and titered for plaque-forming units on a lawn of cells.

T1 sequence (chain, as listed by the source): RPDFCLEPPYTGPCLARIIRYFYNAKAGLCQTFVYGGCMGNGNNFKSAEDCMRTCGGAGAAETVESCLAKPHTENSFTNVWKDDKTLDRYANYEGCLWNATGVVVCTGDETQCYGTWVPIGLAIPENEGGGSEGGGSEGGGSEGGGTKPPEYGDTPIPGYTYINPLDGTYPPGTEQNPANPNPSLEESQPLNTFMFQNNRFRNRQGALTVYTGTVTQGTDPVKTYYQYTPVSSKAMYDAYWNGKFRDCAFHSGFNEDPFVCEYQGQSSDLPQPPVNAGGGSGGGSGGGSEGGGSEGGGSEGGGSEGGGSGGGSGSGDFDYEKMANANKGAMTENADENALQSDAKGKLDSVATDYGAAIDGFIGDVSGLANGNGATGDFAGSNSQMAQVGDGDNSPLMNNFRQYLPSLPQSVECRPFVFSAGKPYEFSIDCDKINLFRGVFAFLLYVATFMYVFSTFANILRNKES

B1: human neutrophil elastase (enzyme, UniProt P08246 30-247, looked up)
chain: IVGGRRARPHAWPFMVSLQLRGGHFCGATLIAPNFVMSAAHCVANVNVRAVRVVLGAHNLSRREPTRQVFAVQRIFENGYDPVNLLNDIVILQLNGSATINANVQVAQLPAQGRRLGNGVQCLAMGWGLLGRNRGIASVLQELNVTVVTSLCRRSNVCTLVRGRQAGVCFGDSGSPLVCNGLIHGIASFVRGGCASGLYPDAFAPVAQFVNWIDSIIQ
notes: also called HNE; HNE beads
On to B1, for which the binding result in assay [1] and in assay [2] was “binds” in each case.
